Experimental data: US20040180417A1, “Secretase/sheddase with asp-ase activity on the beta-site app-cleaving enzyme (bace, asp2, memepsin2)” (priority 2000, published 2004)

How the values were obtained:
[1] = tested on: proBACE processing by PC-like enzyme; assay: proBACE processing in HK293 cells co-expressing [BACEF]FG/V5 and PC-inhibitors (pulse-chase, immunoprecipitation, SDS-PAGE); assay type: cell-based, human; conditions: co-expression; 20 min [35S]Met pulse, 90 min chase; FG immunoprecipitation
Protocol: FIG. 1: HK293 cells were transiently co-transfected with either ([BACEF]FG/V5+BDNF) [control, CTL] (A,C) or ([BACEF]FG/V5+α1-PDX) (B,D) cDNAs. Two days post-transfections the cells were pulse-labeled in the absence or presence of […] BFA for 15 min with [^35S]Met and then chased for 1 or 2h. Cell lysates were immunoprecipitated with either the FG or V5 mAbs and analysed by SDS-PAGE on 8% tricine gels. The migration position of the 53 kDa molecular mass standard and those of proBACE (pBACE) and BACE are emphasized.
FIG. 2: [A] HK293 cells were transiently co-transfected with cDNAs coding for either ([BACEF]FG/V5+BDNF) [control, CTL], ([BACEF-R45A]FG/V5+BDNF) or ([BACEF-R42A]FG/V5+BDNF) or ([BACEF]FG/V5+either α1-PDX, the prosegments of furin, PC5, PC7, SKI-1, furin-mutated (α2M-F) or wild type (α2M) α2-macroglobulin. The cells were pulse-labeled for 20 min with [^35S]Met and then chased for 90 min. Cell lysates were immunoprecipitated with the FG mAb and analysed by SDS-PAGE on 8% tricine gels. [B] HK293 cells were transiently co-transfected with cDNAs coding for either ([BACEF]FG/V5+BDNF) [CTL], ([BACEF]FG/V5+furin) or ([BACEF]FG/V5+α1-PDX). The cells were then pulse-labeled for 2h with Na2[^35SO4]. Cell lysates were immunoprecipitated with the FG or V5 mAbs and analysed by SDS-PAGE on 8% tricine gels. […]

[2] = tested on: [proBACES]FG/V5; assay: In vitro PC-mediated processing of proBACES (Western blot); assay type: biochemical, mouse; conditions: equivalent hydrolytic activities of PCs, 1-4 hours incubation

Molecule	quantity of the 72 kDa proBACE (pBACEG, Golgi form) [1]	ability to process proBACE into BACE [2]
α2M: wild type α2-macroglobulin (protein, UniProt P01023 24-1474, looked up) Alpha-2-macroglobulin: SVSGKPQYMVLVPSLLHTETTEKGCVLLSYLNETVTVSASLESVRGNRSLFTDLEAENDVLHCVAFAVPKSSSNEEVMFLTVQVKGPTQEFKKRTTVMVKNEDSLVFVQTDKSIYKPGQTVKFRVVSMDENFHPLNELIPLVYIQDPKGNRIAQWQSFQLEGGLKQFSFPLSSEPFQGSYKVVVQKKSGGRTEHPFTVEEFVLPKFEVQVTVPKIITILEEEMNVSVCGLYTYGKPVPGHVTVSICRKYSDASDCHGEDSQAFCEKFSGQLNSHGCFYQQVKTKVFQLKRKEYEMKLHTEAQIQEEGTVVELTGRQSSEITRTITKLSFVKVDSHFRQGIPFFGQVRLVDGKGVPIPNKVIFIRGNEANYYSNATTDEHGLVQFSINTTNVMGTSLTVRVNYKDRSPCYGYQWVSEEHEEAHHTAYLVFSPSKSFVHLEPMSHELPCGHTQTVQAHYILNGGTLLGLKKLSFYYLIMAKGGIVRTGTHGLLVKQEDMKGHFSISIPVKSDIAPVARLLIYAVLPTGDVIGDSAKYDVENCLANKVDLSFSPSQSLPASHAHLRVTAAPQSVCALRAVDQSVLLMKPDAELSASSVYNLLPEKDLTGFPGPLNDQDNEDCINRHNVYINGITYTPVSSTNEKDMYSFLEDMGLKAFTNSKIRKPKMCPQLQQYEMHGPEGLRVGFYESDVMGRGHARLVHVEEPHTETVRKYFPETWIWDLVVVNSAGVAEVGVTVPDTITEWKAGAFCLSEDAGLGISSTASLRAFQPFFVELTMPYSVIRGEAFTLKATVLNYLPKCIRVSVQLEASPAFLAVPVEKEQAPHCICANGRQTVSWAVTPKSLGNVNFTVSAEALESQELCGTEVPSVPEHGRKDTVIKPLLVEPEGLEKETTFNSLLCPSGGEVSEELSLKLPPNVVEESARASVSVLGDILGSAMQNTQNLLQMPYGCGEQNMVLFAPNIYVLDYLNETQQLTPEIKSKAIGYLNTGYQRQLNYKHYDGSYSTFGERYGRNQGNTWLTAFVLKTFAQARAYIFIDEAHITQALIWLSQRQKDNGCFRSSGSLLNNAIKGGVEDEVTLSAYITIALLEIPLTVTHPVVRNALFCLESAWKTAQEGDHGSHVYTKALLAYAFALAGNQDKRKEVLKSLNEEAVKKDNSVHWERPQKPKAPVGHFYEPQAPSAEVEMTSYVLLAYLTAQPAPTSEDLTSATNIVKWITKQQNAQGGFSSTQDTVVALHALSKYGAATFTRTGKAAQVTIQSSGTFSSKFQVDNNNRLLLQQVSLPELPGEYSMKVTGEGCVYLQTSLKYNILPEKEEFPFALGVQTLPQTCDEPKAHTSFQISLSVSYTGSRSASNMAIVDVKMVSGFIPLKPTVKMLERSNHVSRTEVSSNHVLIYLDKVSNQTLSLFFTVLQDVPVRDLKPAIVKVYDYYETDEFAIAEYNAPCSKDLGNA	barely detectable	–
PC7 (protein) SIHFNDPKYPQQWHLNNRRSPGRDINVTGVWERNVTGRGVTVVVVDDGVEHTVQDIAPNYSPEGSYDLNSNDPDPMPHPDEENGNHHGTRCAGEIAAVPNNSFCAVGVAYGSRIAGIRVLDGPLTDSMEAVAFNKHYQINDIYSCSWGPDDDGKTVDGPHQLGKAALQHGVMAGRQGFGSIFVVASGNGGQHNDNCNYDGYANSIYTVTIGAVDEEGRMPFYAEECASMLAVTFSGGDKMLRSIVTTDWDLQKGTGCTEGHTGTSAAAPLAAGMIALMLQVRPCLTWRDVQHIIVFTATQYEDHRADWLTNEAGFSHSHQHGFGLLNAWRLVNAAKIWTSVPYLASYVSPMLKENKAVPRSPHSLEVLWNVSRTDLEMSGLKTLEHVAVTVSITHPRRGSLELKLFCPSGMMSLIGAPRSMDSDPNGFNDWTFSTVRCWGERARGVYRLVIRDVGDEPLQVGILQQWQLTLYGSTWSPVDIKDRQSLLESAMSGKYLHDDFTLPCPPGLKIPEEDGYSITPNTLKT	–	barely, if at all, able
